According to patent publication US20220296736A1, “ADMINISTRATION OF THERAPEUTIC AGENTS TO BRAIN AND OTHER CELLS AND TISSUE” (priority 2019, published 2022):

How the values were obtained:
[1] = Histological assessment of BV biodistribution and extravasation; type: in vivo, SCID mice; details: for localisation in brain tissue: one hour after delivery
Experimental: For histological evaluation on the safety of OBBBO in the cortex, 7 days after surgery, animals (n=4) were anesthetized and perfused transcardially with 5% sucrose, followed by 4% paraformaldehyde (PFA). The brains were rapidly removed and post-fixed overnight in 4% PFA at 4° C. The brains were cryopreserved in 30% sucrose and 30-μm thick coronal sections were cryosectioned. Immunohistochemistry for anti-GFAP (1:250, Dako) and anti-Iba1 (1:250, Wako) was performed to assess the neuroinflammation. The secondary antibody was goat anti-rabbit (Alexa Fluor-488, 1:200, Molecular Probes). For detecting the biodistribution of infused BV, the mice with OBBBO (n=4) and without OBBBO (n=3) were sacrificed 1 hour after administration. The brains were cryosectioned at 30 μm and the slices were stained with goat anti-human secondary antibody (Alexa Fluor-488, 1:200, Invitrogen). All the fluorescent images were acquired using an inverted microscope (Zeiss, Axio Observer Z1).
A p-value less than 0.05 was considered significant.

recombinant human VEGF-A = assay: Functional binding assay of BV and BVDFO to VEGF (Bevacizumab ELISA); details: unmodified BV versus BVDFO conjugate
Experimental: The ELISA assay devoted for assessment of bevacizumab concentration has been used to assess the binding capacity of unmodified BV and BVDFO conjugate. The assay was carried out using Bevacizumab ELISA (ImmunoGuide, Eagle Bioscience) according to the manufacturer protocol. Briefly, 100 μg/mL, 50 μg/mL, 25 μg/mL of BV and BVDFO, as well as the provided standards were diluted 1:1000, and pipetted in 6 repetitions into the wells of the microtiter plate coated with recombinant human VEGF-A. Plate was incubated for 60 min in the room temperature and washed 3× with buffer. Next, horseradish peroxidase (HRP) conjugated anti-human IgG monoclonal antibody was added to each well, and incubated in room temperature for 30 min. Plate was washed 3× with the buffer and ready-to-use TMB substrate solution was added to each well. After 15 min incubation in dark, stop solution was added to each well and the color change from blue to yellow was observed. The absorbance at 450 nm was read using Victor 3 plate reader (Perkin Elmer) within 10 min after addition of the stop solution and expressed as optical density (OD).

[2] = Safety of IA mannitol-induced BBBO in the cortex (MRI and GFAP/IBA1 histology); type: in vivo, SCID mice
Experimental: Once cortical perfusion has been confirmed, 25% mannitol mixed with Gd (50:1) was infused until enhancement indicating BBB breach has been achieved (up to three bolus injections 1-2 min each; interval between infusions is 30 s). For detailed assessment of the BBB status, high resolution T1-weighted scan was collected after mannitol infusion. Three and seven days after OBBBO, the safety of the procedure was evaluated by MRI and then animals were sacrificed for further histological assessment.
For histological evaluation on the safety of OBBBO in the cortex, 7 days after surgery, animals (n=4) were anesthetized and perfused transcardially with 5% sucrose, followed by 4% paraformaldehyde (PFA). The brains were rapidly removed and post-fixed overnight in 4% PFA at 4° C. The brains were cryopreserved in 30% sucrose and 30-μm thick coronal sections were cryosectioned. Immunohistochemistry for anti-GFAP (1:250, Dako) and anti-Iba1 (1:250, Wako) was performed to assess the neuroinflammation. The secondary antibody was goat anti-rabbit (Alexa Fluor-488, 1:200, Molecular Probes). […] All the fluorescent images were acquired using an inverted microscope (Zeiss, Axio Observer Z1).
Data is expressed as mean±SD unless otherwise specified. Quantitation of immunohistochemistry was based on relative fluorescence using Image J and analyzed using a paired t-test. The ratio of ipsi-/contralateral was analyzed using an unpaired t-test. The MRI analysis of the change in area of the Gd perfusion territory and Gd-enhancement for each mouse was calculated using a custom-written script in MATLAB and analyzed using a paired t-test. A p-value less than 0.05 was considered significant.

[3] = mouse, in vivo
Experimental: In the first step, we conjugated BV with DFO chelator and characterized resulting conjugate by means of its molecular weight and binding to vascular endothelial growth factor (VEGF). […] Next day PET-CT imaging was repeated and animals were sacrificed to perform ex vivo biodistribution of ^89ZrBVDFO.
(§1) All animal procedures were carried out under protocols approved by the Johns Hopkins Animal Care and Use Committee. Under general anesthesia with 1-2% isoflurane a catheter was placed in internal carotid artery of C3HeB/FeJ (Jackson, stock No. 000658), male, 6-8 weeks old mice, as we described previously (22) and animal was transferred to the PET-CT scanner. […] A CT scan (512 projections) was performed after dynamic scan for anatomical co-registration. PET/CT imaging was repeated around 24 h post infusion. PET data were reconstructed using the two-dimensional ordered subsets-expectation maximization algorithm (2D-OSEM) and corrected for dead time and radioactive decay. Presented whole body images were generated using Amira® (FEI, Hillsboro, Oreg.) and dynamic scans (brain and heart radioactivity accumulation) and radioactivity distribution in different brain regions were analyzed with PMOD 4.3 (PMOD Technologies LLC, Zurich, Switzerland).

[4] = mouse, in vivo; remark: listed apart in the source
Experimental: In the first step, we conjugated BV with DFO chelator and characterized resulting conjugate by means of its molecular weight and binding to vascular endothelial growth factor (VEGF).
as §1

[5] = mouse, in vivo, iv; cited from earlier work
[6] = human, in vivo, iv; cited from earlier work
[7] = Intravital 2PM visualization of cortical BBBO and drug extravasation; type: in vivo, SCID mice; details: IA infusion with 25% mannitol; 7 ROIs
Experimental: Before microscopy, isoflurane anesthetized mice (n=5) with cranial window and with arterial access as described above were stabilized in a custom-made frame immobilizing their head. The mice were positioned under an epi-fluorescent microscope and a 10× magnification objective was used for capturing images at frequency of 1-2 Hz. Saline solution of 0.001 mM rhodamine (0.58 kDa) was injected using a syringe infusion pump at the rate of 0.15 ml/min over 1 min via the ICA microcatheter to visualize trans-catheter perfusion. When the cortex was not perfused, the cCCA was closed temporarily for 20 s by engaging the weights.
For 2PM to visualize OBBBO and drug penetration, mice were placed under a multiphoton microscope (FV1000MPE, Olympus, Tokyo, Japan). A 10× objective (UPlanSApo, 0.40 NA and 3.1 mm working distance) was centered over the cranial window and used to collect time series images of 800×800 pixels (1.59 μm/pixel; 2 μs/pixel; 100 frames) at an estimated depth of 150 um below the cortical surface. Rhodamine (0.002 mM) mixed with BV-FITC (0.01 mM) was injected prior to OBBBO to collect baseline data and optimize cortical perfusion (temporary cCCA closure). Then, 25% mannitol mixed with rhodamine and BV-FITC was delivered at the rate of 0.15 ml/min for 4 mins in total. […]

recombinant human VEGF-A, sequence (P15692 207-320 limits assumed): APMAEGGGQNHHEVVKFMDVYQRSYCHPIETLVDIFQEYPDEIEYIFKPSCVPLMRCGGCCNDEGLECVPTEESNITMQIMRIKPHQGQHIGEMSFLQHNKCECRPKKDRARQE

Question: With “BV: AVASTIN (BV, Roche), bevacizumab, antibody binding VEGF” as the compound, how does the “localisation in brain tissue” value ([1]; IA delivery with OBBBO) read?
Answer: The value was “both blood vessels and parenchyma”.

Question: What about the “localisation in brain tissue” value ([1]; IA delivery with intact BBB (BBBI)) of the same compound?
Answer: Its value is “localized within the blood vessels”.

Question: And the “uptake in ipsilateral vs. contralateral hemisphere (fluorescence intensity)” value ([1]; both groups (BBBI and OBBBO))?
Answer: The value was “significantly higher uptake”.

Question: For “BVDFO: bevacizumab conjugated with p-SCN-Bn-DFO chelator”, which “binding to VEGF” value (recombinant human VEGF-A) is on record?
Answer: The value was “did not affect its targeting properties”.

Question: With `OC[C@@H](O)[C@@H](O)[C@H](O)[C@H](O)CO` [mannitol] as the compound, how does the “brain damage after cortical BBBO induction (MRI and histology)” value ([2]; 3 and 7 days after BBBO) read?
Answer: The value was “did not cause brain damage”.

Question: And the “astrocytic or microglial activation in the BBBO region (GFAP and IBA-1 staining)” value ([2]; 7 days post BBBO, ipsilateral versus contralateral)?
Answer: Its value is “no evidence of astrocytic or microglial activation”.

Question: And the “brain damage after excessive exposure (T2 hyperintensity)” value ([2]; continuous 4 min-infusion)?
Answer: Its value is “led to brain damage”.

Question: What does the source list for “89ZrBVDFO: bevacizumab conjugated with on average 3 molecules of DFO chelator and radiolabeled with 89Zr”?
Answer: radioactivity accumulation in contralateral hemisphere [3]: no radioactivity accumulation; signal in the contralateral hemisphere [3]: negligible signal; radioactivity in the entire brain ([3]; iv): 2.91 % ID/cc; clearance from the brain compared with 89ZrNB(DFO)2 [4]: slower; accumulation in the brain and tumors [5]: no accumulation; uptake in diffuse intrinsic pontine glioma [6]: some uptake in five out of seven patients

Question: With rhodamine as the compound, how does the “extravasation upon BBBO compared to BV-FITC (2PM fluorescence intensity)” value [7] read?
Answer: The value was “earlier onset and higher intensity of extravasation”.
